Assay results: US20250043302A1, “MUTATED HYDROXYPHENYLPYRUVATE DIOXYGENASE POLYPEPTIDE, AND CODING GENE AND USE THEREOF” (BEIJING DABEINONG BIOTECHNOLOGY CO., LTD., priority 2021, published 2025)

Tests used:
Type in all cases: in vivo
soybean T1 plants [1] = experiment: Mesotrione tolerance of transgenic soybean T1 plants; conditions: different concentrations
soybean T1 plants [2] = experiment: Topramezone tolerance of transgenic soybean T1 plants; conditions: different concentrations
Method: T1 transformants were initially selected from the untransformed seeds using a glufosinate selection scheme. […] The degree of damage caused by the herbicide was measured for each plant according to the proportion of bleached leaf area (the proportion of bleached leaf area=bleached leaf area/total leaf area×100%) 7 days after spraying (7 DAT): the case where there is basically no bleached phenotype is defined as grade 0, the case where the proportion of bleached leaf area is less than 50% is defined as grade 1, the case where the proportion of bleached leaf area is more than 50% is defined as grade 2, and the case where the proportion of bleached leaf area is 100% grade is defined as grade 3.
The soybean T1 plants into which the SbHPPD-02 nucleotide sequence was introduced, soybean T1 plants into which the SbHPPDm-F372A-02 nucleotide sequence was introduced, soybean T1 plants into which the SbHPPDm-F383W-02 nucleotide sequence was introduced, soybean T1 plants into which the SbHPPDm-F372A-F383W-02 nucleotide sequence was introduced, soybean T1 plants into which the control vector DBN11726N nucleotide sequence was introduced, and wild-type soybean plants (V3-V4 at seedling stage) were sprayed with topramezone at three different concentrations (i.e., 25 g ai/ha (one-fold field concentration, 1×). […] According to the method in point 6 of Example 1, after 7 days of spraying (7 DAT), the damage degree of each plant by the herbicide was statistically analyzed, and the scoring and resistance evaluation were carried out accordingly. […]

[3] = tested on: Arabidopsis thaliana T1 plants; experiment: Isoxaflutole tolerance of transgenic Arabidopsis thaliana T1 plants (spray, bleached leaf area grade, damage score); parameters: Scores (pesticide damage): scale not given here; conditions: spray, Arabidopsis thaliana T1 plants; for Classification and statistics of the grade of pesticide damage: Grade 0 (number of plants) / Classification and statistics of the grade of pesticide damage: Grade 1 (number of plants) / Classification and statistics of the grade of pesticide damage: Grade 2 (number of plants) / Classification and statistics of the grade of pesticide damage: Grade 3 (number of plants): 16 plants
Method in brief: (§1)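 Read-out: per-plant damage grade 0–3 from proportion of bleached leaf area at 7 DAT (1 <50%, 2 >50%, 3 100%). Plants were T1 transformants, glufosinate-selected, plus wild-type CK, sprayed 18 days post-sowing. Rates: topramezone 25–200, isoxaflutole 35–280, mesotrione 52.5–420 g ai/ha.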

soybean T1 plants [4] = experiment: Isoxaflutole tolerance of transgenic soybean T1 plants; conditions: different concentrations
[5] = tested on: Arabidopsis thaliana T1 plants; experiment: Mesotrione tolerance of transgenic Arabidopsis thaliana T1 plants (spray, bleached leaf area grade, damage score); parameters: Scores: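 damage score 0-100 computed as Σ(N×S)/(T×M)×100 over grades 0-3 with higher meaning more damage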; conditions: Arabidopsis thaliana T1 plants; for Grade 0 (classification and statistics of the grade of pesticide damage; number of plants) / Grade 1 (classification and statistics of the grade of pesticide damage; number of plants) / Grade 2 (classification and statistics of the grade of pesticide damage; number of plants) / Grade 3 (classification and statistics of the grade of pesticide damage; number of plants): 16 plants
Method in brief: as §1

[6] = tested on: Arabidopsis thaliana T1 plants; experiment: Topramezone tolerance of transgenic Arabidopsis thaliana T1 plants (spray, bleached leaf area grade, damage score); conditions: 7 DAT, Table 4; for Classification and statistics of the grade of pesticide damage: Grade 0 / Classification and statistics of the grade of pesticide damage: Grade 1 / Classification and statistics of the grade of pesticide damage: Grade 2 / Classification and statistics of the grade of pesticide damage: Grade 3: number of plants; for Scores: pesticide damage score 0-100
Method in brief: as §1

[7] = isoxaflutole 35 g ai/ha (0.5x field concentration)
[8] = isoxaflutole 70 g ai/ha (1x field concentration)

B1: SbHPPDm-F383W-02: nucleotide sequence encoding Sorghum bicolor HPPD with F383W; vector DBN11760 (nucleic acid)
DNA: ATGCCGCCCACTCCAACAACTGCTGCTGCGACGGGAGCAGCTGTCGCCGCTGCTTCTGCTGAGCAGGCTGCCTTCAGGCTCGTCGGGCACAGAAATTTTGTTCGTGTAAATCCAAGGAGTGATAGGTTCCACACCTTGGCTTTTCACCACGTGGAGTTGTGGTGTGCTGATGCAGCCTCGGCAGCGGGGCGCTTCTCGTTTGGTCTCGGTGCTCCGCTCGCCGCAAGATCTGATCTTAGCACTGGAAACACAGCGCATGCCTCCCTGCTCCTGCGCTCTGGCGCGCTGGCGTTCCTCTTCACGGCGCCATATGCTCACGGCGCCGACGCCGCCACCGCGTCATTGCCGTCTTTTAGTGCAGCCGAAGCAAGAAGATTTGCAGCAGACCACGGCCTCGCCGTAAGGGCCGTGGCCTTACGTGTCGCCGATGCCGAAGATGCTTTCCGCGCCTCTGTAGCAGCTGGAGCAAGGCCAGCATTTGAACCTGTTGAATTGGGGTTAGGATTCCGTCTTGCAGAAGTTGAGCTTTATGGCGACGTTGTTTTGAGATACGTTTCATATCCTGATGACGCTGACGCTAGCTTCTTGCCTGGTTTTGTGGGGGTGACATCACCTGGGGCAGCAGATTATGGTCTCAGGCGGTTTGATCATATTGTTGGAAACGTTCCTGAACTCGCGCCGGCGGCAGCCTACTTCGCCGGTTTCACTGGGTTTCATGAATTTGCTGAATTCACAGCCGAGGATGTCGGCACCACCGAGAGTGGACTGAACTCCATGGTGCTGGCCAACAATGCAGAGAATGTCCTTCTTCCCTTGAATGAACCAGTTCATGGAACAAAAAGGCGTTCCCAAATACAAACATACCTCGACCATCATGGTGGACCAGGCGTTCAGCATATGGCTCTCGCTAGTGACGATGTTCTACGAACCCTGCGAGAGATGCAGGCGCGGTCTGCAATGGGAGGATTTGAGTTCATGGCACCTCCTGCCCCTGAATATTATGATGGTGTTCGGAGAAGGGCAGGTGATGTGCTAACTGAAGCTCAAATCAAGGAGTGCCAGGAGCTTGGCGTGCTGGTCGATCGGGATGATCAAGGTGTGCTTCTGCAGATTTTTACTAAACCAGTGGGTGACCGCCCCACGCTGTGGCTAGAGATCATCCAGAGAATAGGGTGCATGGAGAAGGACGAAAAAGGACAAGAGTACCAGAAGGGAGGTTGTGGCGGCTTTGGAAAAGGGAACTTCTCCCAATTATTCAAGTCAATTGAAGACTATGAAAAGAGTTTGGAGGCTAAGCAAGCTGCAGCCGCCCAGGGCAGCTGA
modifications: SbHPPDm-F383W-02 Nucleotide Sequence
notes: vector DBN11760
**Q.** Which “tolerance to HPPD-inhibitor herbicides (in words): mesotrione” value (soybean T1 plants [1]) does the source give for B1 here?
**A.** different degrees of tolerance

**Q.** And the “tolerance to HPPD-inhibitor herbicides (in words): topramezone” value (soybean T1 plants [2])?
**A.** different degrees of tolerance

**Q.** What about the Resistance evaluation [3, 7] of the same molecule?
**A.** Poorly

**Q.** What about the “Scores (pesticide damage)” value [3, 7] of the same molecule?
**A.** 65

**Q.** What about the “Classification and statistics of the grade of pesticide damage: Grade 0 (number of plants)” value [3, 7] of the same molecule?
**A.** 0

**Q.** And the “Classification and statistics of the grade of pesticide damage: Grade 1 (number of plants)” value [3, 7]?
**A.** 1

**Q.** What about the “Classification and statistics of the grade of pesticide damage: Grade 2 (number of plants)” value [3, 7] of the same molecule?
**A.** 15

**Q.** What about the “Classification and statistics of the grade of pesticide damage: Grade 3 (number of plants)” value [3, 7] of the same molecule?
**A.** 0

**Q.** What about the Resistance evaluation [3, 8] of the same molecule?
**A.** Non-resistant

**Q.** And the “Scores (pesticide damage)” value [3, 8]?
**A.** 100

**Q.** And the “Classification and statistics of the grade of pesticide damage: Grade 0 (number of plants)” value [3, 8]?
**A.** 0

**Q.** What about the “Classification and statistics of the grade of pesticide damage: Grade 1 (number of plants)” value [3, 8] of the same molecule?
**A.** 0

**Q.** And the “Classification and statistics of the grade of pesticide damage: Grade 2 (number of plants)” value [3, 8]?
**A.** 0

**Q.** And the “Classification and statistics of the grade of pesticide damage: Grade 3 (number of plants)” value [3, 8]?
**A.** 16

**Q.** What about the “tolerance to HPPD-inhibitor herbicides (in words): isoxaflutole” value (soybean T1 plants [4]) of the same molecule?
**A.** different degrees of tolerance

**Q.** What about the Resistance evaluation ([5]; mesotrione 52.5 g ai/ha) of the same molecule?
**A.** Non-resistant

**Q.** What about the Scores ([5]; mesotrione 52.5 g ai/ha) of the same molecule?
**A.** 69

**Q.** And the “Grade 0 (classification and statistics of the grade of pesticide damage; number of plants)” value ([5]; mesotrione 52.5 g ai/ha)?
**A.** 0

**Q.** And the “Grade 1 (classification and statistics of the grade of pesticide damage; number of plants)” value ([5]; mesotrione 52.5 g ai/ha)?
**A.** 5

**Q.** What about the “Grade 2 (classification and statistics of the grade of pesticide damage; number of plants)” value ([5]; mesotrione 52.5 g ai/ha) of the same molecule?
**A.** 5

**Q.** And the “Grade 3 (classification and statistics of the grade of pesticide damage; number of plants)” value ([5]; mesotrione 52.5 g ai/ha)?
**A.** 6

**Q.** And the Resistance evaluation ([5]; mesotrione 105 g ai/ha)?
**A.** Non-resistant

**Q.** What about the Scores ([5]; mesotrione 105 g ai/ha) of the same molecule?
**A.** 100

**Q.** What about the “Grade 0 (classification and statistics of the grade of pesticide damage; number of plants)” value ([5]; mesotrione 105 g ai/ha) of the same molecule?
**A.** 0

**Q.** And the “Grade 1 (classification and statistics of the grade of pesticide damage; number of plants)” value ([5]; mesotrione 105 g ai/ha)?
**A.** 0

**Q.** And the “Grade 2 (classification and statistics of the grade of pesticide damage; number of plants)” value ([5]; mesotrione 105 g ai/ha)?
**A.** 0

**Q.** What about the “Grade 3 (classification and statistics of the grade of pesticide damage; number of plants)” value ([5]; mesotrione 105 g ai/ha) of the same molecule?
**A.** 16

**Q.** What about the “Classification and statistics of the grade of pesticide damage: Grade 0” value ([6]; topramezone 25 g ai/ha (1×)) of the same molecule?
**A.** 7

**Q.** And the “Classification and statistics of the grade of pesticide damage: Grade 1” value ([6]; topramezone 25 g ai/ha (1×))?
**A.** 6

**Q.** What about the “Classification and statistics of the grade of pesticide damage: Grade 2” value ([6]; topramezone 25 g ai/ha (1×)) of the same molecule?
**A.** 3

**Q.** And the “Classification and statistics of the grade of pesticide damage: Grade 3” value ([6]; topramezone 25 g ai/ha (1×))?
**A.** 0

**Q.** What about the “Classification and statistics of the grade of pesticide damage: Grade 0” value ([6]; topramezone 100 g ai/ha (4×)) of the same molecule?
**A.** 0

**Q.** And the “Classification and statistics of the grade of pesticide damage: Grade 1” value ([6]; topramezone 100 g ai/ha (4×))?
**A.** 0

**Q.** And the “Classification and statistics of the grade of pesticide damage: Grade 2” value ([6]; topramezone 100 g ai/ha (4×))?
**A.** 0

**Q.** What about the “Classification and statistics of the grade of pesticide damage: Grade 3” value ([6]; topramezone 100 g ai/ha (4×)) of the same molecule?
**A.** 16

**Q.** What about the Scores ([6]; topramezone 25 g ai/ha (1×)) of the same molecule?
**A.** 25

**Q.** What about the Scores ([6]; topramezone 100 g ai/ha (4×)) of the same molecule?
**A.** 100

**Q.** What about the Resistance evaluation ([6]; topramezone 25 g ai/ha (1×)) of the same molecule?
**A.** moderately

**Q.** And the Resistance evaluation ([6]; topramezone 100 g ai/ha (4×))?
**A.** non-resistant (non-resistant plants (scores 68-100))
